Patent publication US20230235013A1 (MABSOLVE, published 2023)
Where a chain is given by its changes, count along the chain named. Numbers in names are those of the source. Each block holds one binder with its values, some of them ahead of it.

Biological target: T1, Histidine-tagged recombinant human FcγRI (CD64) (human, UniProt P12314 16-288)
T1 construct: bought; also called Sino Biological Cat. No. 12056-H08H
Assay: SPR, culture supernatant, captured His-FcγRI;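 also: biacore T200 SPR at 25 °C, anti-His capture, supernatants of HEK293 cells expressing IgG1 Fc variants injected 1 min, reference-subtracted response read 55 s after injection start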
Procedure: Binding analysis was carried out by surface plasmon resonance at 25° C. using a Biacore® T200 instrument with Biacore® T200 control software. The running buffer (HBS-EP+) consisted of 0.01 M HEPES pH 7.4, containing 0.15 M NaCl, 3 mM EDTA, and 0.05% v/v Surfactant P20. The sample compartment was held at 4° C. during analysis.
The cell was activated by treatment with EDC/NHS for 7 min. The antibody was diluted to 5 μg/mL in 10 mM sodium acetate pH 4.5 and injected for 7 min at 5 μL/min. The flow cell was deactivated by injection of 1M ethanolamine for 7 min. This process was repeated in the absence of anti-his antibody on a separate flow cell to generate a reference surface. […] Samples of undiluted culture supernatants from HEK293 cells expressing human IgG1 antibodies comprising variant Fc regions were injected for 1 min at 30 μL/min and allowed to disassociate for 2 min. […] Therefore, regeneration between cycles was not necessary. Responses on the test flow cell (coupled with anti-His antibody) were analysed after subtraction of responses on the control flow cell (sham-coupled). The relative binding response was measured 55 sec after the beginning of sample injection. To account for any possible drift in response due to slow dissociation of the His-tagged FcγRI, the binding response was measured relative to a baseline interpolated between report points located before sample injection and at the end of dissociation.
The whole experiment was repeated three times. Due to the relatively crude nature of the samples (variable refractive index, presence of culture media and other cellular products), some sensorgrams were unsatisfactory and were eliminated from analysis. The mean and standard deviation of binding response was then calculated for each sample.

Mean binding response: 25.6 RU
B3: anti-CD20 human IgG1 L234H/L235V/G236R (antibody)
heavy: QVQLQQPGAELVKPGASVKMSCKASGYTFTSYNMHWVKQTPGRGLEWIGAIYPGNGDTSYNQKFKGKATLTADKSSSTAYMQLSSLTSEDSAVYYCARSTYYGGDWYFNVWGAGTTVTVSSASTKGPSVFPLAPSSKSTSGGTAALGCLVKDYFPEPVTVSWNSGALTSGVHTFPAVLQSSGLYSLSSVVTVPSSSLGTQTYICNVNHKPSNTKVDKKVEPKSCDKTHTCPPCPAPEHVRGPSVFLFPPKPKDTLMISRTPEVTCVVVDVSHEDPEVKFNWYVDGVEVHNAKTKPREEQYNSTYRVVSVLTVLHQDWLNGKEYKCKVSNKALPAPIEKTISKAKGQPREPQVYTLPPSRDELTKNQVSLTCLVKGFYPSDIAVEWESNGQPENNYKTTPPVLDSDGSFFLYSKLTVDKSRWQQGNVFSCSVMHEALHNHYTQKSLSLSPGK
light: QIVLSQSPAILSASPGEKVTMTCRASSSVSYIHWFQQKPGSSPKPWIYATSNLASGVPVRFSGSGSGTSYSLTISRVEAEDAATYYCQQWTSNPPTFGGGTKLEIKRTVAAPSVFIFPPSDEQLKSGTASVVCLLNNFYPREAKVQWKVDNALQSGNSQESVTEQDSKDSTYSLSSTLTLSKADYEKHKVYACEVTHQGLSSPVTKSFNRGEC
notes: also called 1-76; copies: 2 + 2

Mean binding response: 31.2 RU
B7: anti-CD20 human IgG1 L234K/G236R (antibody)
heavy: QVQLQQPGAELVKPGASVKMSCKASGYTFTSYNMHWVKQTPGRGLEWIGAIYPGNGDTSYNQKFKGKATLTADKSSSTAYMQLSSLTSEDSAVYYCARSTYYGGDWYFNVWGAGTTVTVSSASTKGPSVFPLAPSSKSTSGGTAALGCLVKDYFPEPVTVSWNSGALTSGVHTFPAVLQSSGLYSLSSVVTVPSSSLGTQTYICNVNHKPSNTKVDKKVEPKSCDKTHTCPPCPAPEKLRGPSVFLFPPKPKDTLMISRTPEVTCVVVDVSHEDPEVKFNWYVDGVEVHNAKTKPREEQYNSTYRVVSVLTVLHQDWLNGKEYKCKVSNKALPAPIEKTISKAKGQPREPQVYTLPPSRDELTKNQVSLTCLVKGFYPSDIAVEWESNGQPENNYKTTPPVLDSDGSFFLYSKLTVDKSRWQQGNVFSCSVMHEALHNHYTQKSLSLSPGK
light: B3 light
notes: also called 1-84; copies: 2 + 2

Mean binding response: 27.4 RU
B9: anti-CD20 human IgG1 L234K/L235G/G236R (antibody)
heavy: B3 heavy with H238K, V239G
light: B3 light
notes: also called 1-80; copies: 2 + 2

Mean binding response: 44.9 RU
B13: anti-CD20 human IgG1 L234H/L235T/G236R (antibody)
heavy: B3 heavy with V239T
light: B3 light
notes: also called 1-75; copies: 2 + 2

Mean binding response: 35.3 RU
B20: anti-CD20 human IgG1 L234H/L235R/G236R (antibody)
heavy: B3 heavy with V239R
light: B3 light
notes: also called 1-73; copies: 2 + 2

Mean binding response: 10.9 RU
B21: anti-CD20 human IgG1 L234H/L235S/G236R (antibody)
heavy: B3 heavy with V239S
light: B3 light
notes: also called 1-74; 2-21; copies: 2 + 2

Mean binding response: 23 RU
B22: anti-CD20 human IgG1 L234K/L235A/G236R (antibody)
heavy: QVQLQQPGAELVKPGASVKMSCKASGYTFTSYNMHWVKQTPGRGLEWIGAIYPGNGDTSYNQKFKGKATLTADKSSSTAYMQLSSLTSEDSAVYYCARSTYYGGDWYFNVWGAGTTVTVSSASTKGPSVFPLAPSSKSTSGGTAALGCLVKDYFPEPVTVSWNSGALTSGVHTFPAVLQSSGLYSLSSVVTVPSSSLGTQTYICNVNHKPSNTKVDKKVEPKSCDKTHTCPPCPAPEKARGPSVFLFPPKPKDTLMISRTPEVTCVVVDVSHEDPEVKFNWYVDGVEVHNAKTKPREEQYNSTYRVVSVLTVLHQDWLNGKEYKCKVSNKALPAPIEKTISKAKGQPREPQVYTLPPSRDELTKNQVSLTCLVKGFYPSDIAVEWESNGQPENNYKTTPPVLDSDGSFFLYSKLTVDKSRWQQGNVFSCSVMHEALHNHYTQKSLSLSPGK
light: B3 light
notes: also called 1-77; copies: 2 + 2

Mean binding response: 29.9 RU
B23: anti-CD20 human IgG1 L234K/L235E/G236R (antibody)
heavy: B3 heavy with H238K, V239E
light: B3 light
notes: also called 1-79; copies: 2 + 2

More lines, now with the values behind:

B1: anti-CD20 human IgG1 L234G/L235H/G236R (antibody)
heavy: B3 heavy with H238G, V239H
light: B3 light
notes: also called 1-51; 2-17; copies: 2 + 2
Mean binding response: 19 RU

B2: anti-CD20 human IgG1 L234H/L235H/G236R (antibody)
heavy: B3 heavy with V239H
light: B3 light
notes: also called 1-66; copies: 2 + 2
Mean binding response: 36.3 RU

B4: anti-CD20 human IgG1 L234G/L235N/G236R (antibody)
heavy: B3 heavy with H238G, V239N
light: B3 light
notes: also called 1-56; copies: 2 + 2
Mean binding response: 26.8 RU

B5: anti-CD20 human IgG1 L234H/L235Q/G236R (antibody)
heavy: B3 heavy with V239Q
light: B3 light
notes: also called 1-72; copies: 2 + 2
Mean binding response: 33.3 RU

B6: anti-CD20 human IgG1 L234H/L235E/G236R (antibody)
heavy: B3 heavy with V239E
light: B3 light
notes: also called 1-64; copies: 2 + 2
Mean binding response: 22.8 RU

B8: anti-CD20 human IgG1 L234G/L235K/G236R (antibody)
heavy: B3 heavy with H238G, V239K
light: B3 light
notes: also called 1-53; copies: 2 + 2
Mean binding response: 27.4 RU

B10: anti-CD20 human IgG1 L234G/L235Q/G236R (antibody)
heavy: B3 heavy with H238G, V239Q
light: B3 light
notes: also called 1-57; 2-18; copies: 2 + 2
Mean binding response: 13.6 RU

B11: anti-CD20 human IgG1 L234G/L235R/G236R (antibody)
heavy: B3 heavy with H238G, V239R
light: B3 light
notes: also called 1-58; copies: 2 + 2
Mean binding response: 29.3 RU

B12: anti-CD20 human IgG1 L234H/L235G/G236R (antibody)
heavy: B3 heavy with V239G
light: B3 light
notes: also called 1-65; copies: 2 + 2
Mean binding response: 31.6 RU

B14: anti-CD20 human IgG1 L234G/L235M/G236R (antibody)
heavy: B3 heavy with H238G, V239M
light: B3 light
notes: also called 1-55; copies: 2 + 2
Mean binding response: 23.2 RU

B15: anti-CD20 human IgG1 L234G/L235T/G236R (antibody)
heavy: B3 heavy with H238G, V239T
light: B3 light
notes: also called 1-60; copies: 2 + 2
Mean binding response: 26.5 RU

B16: anti-CD20 human IgG1 L234G/L235I/G236R (antibody)
heavy: B3 heavy with H238G, V239I
light: B3 light
notes: also called 1-52; copies: 2 + 2
Mean binding response: 29.2 RU

B17: anti-CD20 human IgG1 L234H/L235N/G236R (antibody)
heavy: B3 heavy with V239N
light: B3 light
notes: also called 1-71; copies: 2 + 2
Mean binding response: 24.6 RU

B18: anti-CD20 human IgG1 L234H/L235M/G236R (antibody)
heavy: B3 heavy with V239M
light: B3 light
notes: also called 1-70; copies: 2 + 2
Mean binding response: 31.3 RU

B19: anti-CD20 human IgG1 L234H/L235A/G236R (antibody)
heavy: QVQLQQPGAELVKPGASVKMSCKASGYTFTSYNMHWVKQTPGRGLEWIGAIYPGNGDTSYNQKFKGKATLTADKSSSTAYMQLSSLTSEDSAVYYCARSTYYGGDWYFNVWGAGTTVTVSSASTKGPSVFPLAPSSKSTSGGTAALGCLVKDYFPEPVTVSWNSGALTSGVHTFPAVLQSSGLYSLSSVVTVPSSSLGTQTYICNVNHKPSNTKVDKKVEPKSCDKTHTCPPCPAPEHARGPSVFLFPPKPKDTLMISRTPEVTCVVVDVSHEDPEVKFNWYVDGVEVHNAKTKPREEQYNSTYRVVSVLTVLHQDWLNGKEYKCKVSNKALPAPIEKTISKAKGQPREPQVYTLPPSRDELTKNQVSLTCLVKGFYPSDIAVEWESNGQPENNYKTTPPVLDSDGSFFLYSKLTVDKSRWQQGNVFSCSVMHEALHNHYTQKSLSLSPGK
light: B3 light
notes: also called 1-62; copies: 2 + 2
Mean binding response: 29.4 RU

B24: anti-CD20 human IgG1 L234H/L235D/G236R (antibody)
heavy: B3 heavy with V239D
light: B3 light
notes: also called 1-63; copies: 2 + 2
Mean binding response: 38.5 RU

B25: anti-CD20 human IgG1 L234H/L235K/G236R (antibody)
heavy: B3 heavy with V239K
light: B3 light
notes: also called 1-68; copies: 2 + 2
Mean binding response: 29.2 RU
